This is an account of results in US6663869B1, “Polyoxime compounds and their preparation” (Gryphon Therapeutics, Inc., priority 1993, dated 2003).

The nature of series [1]: storage stability as a powder at −20° C. Type of series: physicochemical. How it is done:
Solvent was removed by vacuum centrifugation (Speed-Vac; Savant Instruments) without heating. […] Similar methods were used to prepare octa-GXL-baseplate (SEQ ID NO: 9).
The hexa-AOA-baseplate product (SEQ ID NO: 5) eluted during the isocratic elution at 5% B. The product eluted as a single peak on analytical RP-HPLC. The mass was determined by ESI-MS to be 1325.49+/−0.38 daltons as compared to the calculated mass of 1325.4 daltons. […] The storage vial was kept tightly sealed and volatile aldehydes were excluded.
Following solvent removal by vacuum centrifugation, the AOA-TCTP sample (SEQ ID NO: 4) was characterized by ESI-MS. The molecular weight of the sample was determined to be 1542.57+/−1.14 daltons, as compared to the expected value of 1541.73 daltons. The reaction yielded 120 mg AOA-TCTP from 1.3 g. AOA-polypeptidyl resin.

For series [2], the system named is mouse melanoma cells. Particulars: even when modified at the alpha-amino group and when linked as a homodimer (Bagutti et al. 1992); cited from earlier work.
Series [3] is classed as physicochemical. To be noted: pH 7.
In series [4] the test system is B16-F1 melanoma cells. As to the kind of experiment: in situ melanin assay (Bagutti 1992). Type of series: cell-based. To be noted: relative to full-length hormone. The procedure:
The biological activity of MSH can be measured, for example, with an in situ melanin assay in which the peptide is tested for stimulation of B16-F1 melanoma cells (Bagutti 1992).
The binding and potency of some alpha-melanocyte stimulating hormone analog polyoximes were determined. Relative binding in the binding assay using mouse melanoma cells (Bagutti (1992)) refers to the average dissociation constant (Kd) for full-length natural hormone divided by the Kd for our oxime analog. Relative potency in the melanin assay (Bagutti (1992)) refers to the ratio of the concentrations (giving 50% of maximum effect) of full-length hormone and that of analog. Results with the analog of alpha-MSH, Nle-Asp-His-(D)Phe-Arg-Trp-Lys-amide, are provided.

The star is where a group is joined. aminooxyacetyl = NOCC(=O)*

As for “NH2OCH2CO-ELGGGPGAGSLQPLALEGSLQKR-OH (aminooxyacetyl-ELGGGPGAGSLQPLALEGSLQKR-OH; SMILES CC(C)C[C@H](NC(=O)[C@H](C)NC(=O)[C@H](CC(C)C)NC(=O)[C@@H]1CCCN1C(=O)[C@H](CCC(N)=O)NC(=O)[C@H](CC(C)C)NC(=O)[C@H](CO)NC(=O)CNC(=O)[C@H](C)NC(=O)CNC(=O)[C@@H]1CCCN1C(=O)CNC(=O)CNC(=O)CNC(=O)[C@H](CC(C)C)NC(=O)[C@H](CCC(=O)O)NC(=O)CON)C(=O)N[C@@H](CCC(=O)O)C(=O)NCC(=O)N[C@@H](CO)C(=O)N[C@@H](CC(C)C)C(=O)N[C@@H](CCC(N)=O)C(=O)N[C@@H](CCCCN)C(=O)N[C@@H](CCCNC(=N)N)C(=O)O) [AOA-Pep C COSM]”, the storage stability result in series [1] was “stable for at least several months”.

For the substance “NH2OCH2CO-Lys-Leu-Glu-Glu-Gln-Arg-Pro-Glu-Arg-Val-Lys-Gly-OH (aminooxyacetyl-KLEEQRPERVKG-OH; SMILES CC(C)C[C@H](NC(=O)[C@H](CCCCN)NC(=O)CON)C(=O)N[C@@H](CCC(=O)O)C(=O)N[C@@H](CCC(=O)O)C(=O)N[C@@H](CCC(N)=O)C(=O)N[C@@H](CCCNC(=N)N)C(=O)N1CCC[C@H]1C(=O)N[C@@H](CCC(=O)O)C(=O)N[C@@H](CCCNC(=N)N)C(=O)N[C@H](C(=O)N[C@@H](CCCCN)C(=O)NCC(=O)O)C(C)C) [AOA-TCTP COSM]”, the storage stability entry in series [1] is “stable for at least several months”.

On to Nle-Asp-His-(D-Phe)-Arg-Trp-Lys, for which the “binding to melanoma cells” value in series [2] is “binds to melanoma cells”.

Turning to “OCH—CO-Gly3-[Lys(COCHO)]5-Gly-OH [hexa-GXL-baseplate]”, in series [1], the storage stability entry was “stable for at least several weeks”.

Turning to “Ser-TCTP precursor COSM: TCTP 12-mer peptide with added N-terminal serine, SEQ ID NO: 2 (SKLEEQRPEVKG)”, the storage stability entry in series [1] is listed as “stable indefinitely”.

In the case of “acetyl-Asp-Cys-Thr-Leu-Ile-Asp-Ala-Leu-Leu-Gly-Asp-Pro-His-amide (XCTLIDALLGDPX; N-terminal acetyl, C-terminal amide)”, the “oxidized to the disulfide dimer” value in series [3] is “about 30%”.

On to “control monooxime: aminooxyacetyl Nle-Asp-His-(D)Phe-Arg-Trp-Lys-amide oximated with acetaldehyde”, for which the “relative potency (ratio of concentrations giving 50% of maximum effect of full-length hormone and analog)” value in series [4] was found to be 1.78.
